Publication PMC9482650, “Quantitative fragmentomics allow affinity mapping of interactomes” (Nature Communications, 2022)

T1: PDZD2_2, O15018
T1 sequence (O15018 329-429, limits assumed, looked up): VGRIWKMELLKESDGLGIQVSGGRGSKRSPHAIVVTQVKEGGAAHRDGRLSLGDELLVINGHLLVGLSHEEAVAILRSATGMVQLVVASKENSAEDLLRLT

T2: DLG3_2, Q92796
T2 sequence (Q92796 221-321, limits assumed, looked up): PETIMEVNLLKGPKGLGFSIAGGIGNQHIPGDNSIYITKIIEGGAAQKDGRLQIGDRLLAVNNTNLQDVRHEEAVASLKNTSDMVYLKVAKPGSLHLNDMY

T3: TX1BP3, O14907
T3 sequence (O14907 10-122, limits assumed, looked up): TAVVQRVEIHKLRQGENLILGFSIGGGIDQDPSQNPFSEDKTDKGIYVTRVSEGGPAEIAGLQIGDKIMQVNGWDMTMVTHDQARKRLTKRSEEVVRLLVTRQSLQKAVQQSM

T4: LIN7C, Q9NUP9
T4 sequence (Q9NUP9 88-185, limits assumed, looked up): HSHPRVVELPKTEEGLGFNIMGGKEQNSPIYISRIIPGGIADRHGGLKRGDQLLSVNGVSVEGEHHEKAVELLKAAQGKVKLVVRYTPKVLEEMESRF

T5: RADIL, Q96JH8
T5 sequence (Q96JH8 971-1071, limits assumed, looked up): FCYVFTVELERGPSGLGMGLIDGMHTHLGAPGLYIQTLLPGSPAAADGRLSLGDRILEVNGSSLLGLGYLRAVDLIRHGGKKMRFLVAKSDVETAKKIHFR

T6: HTRA4, P83105
T6 sequence (P83105 378-476, limits assumed, looked up): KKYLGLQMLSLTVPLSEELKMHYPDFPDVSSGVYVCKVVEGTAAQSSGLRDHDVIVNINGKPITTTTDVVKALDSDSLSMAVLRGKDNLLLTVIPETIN

T7: DLG3_3, Q92796
T7 sequence (Q92796 374-475, limits assumed, looked up): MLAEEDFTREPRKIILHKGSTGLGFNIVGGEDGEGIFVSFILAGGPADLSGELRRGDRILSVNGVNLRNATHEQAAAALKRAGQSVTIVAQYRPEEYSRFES

T8: DFNB31_2, Q9P202
T8 sequence (Q9P202 274-371, limits assumed, looked up): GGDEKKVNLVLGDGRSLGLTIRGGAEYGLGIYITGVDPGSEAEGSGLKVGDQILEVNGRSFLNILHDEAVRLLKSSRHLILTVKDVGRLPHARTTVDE

T9: MPP7, Q5T2T1
T9 sequence (Q5T2T1 134-230, limits assumed, looked up): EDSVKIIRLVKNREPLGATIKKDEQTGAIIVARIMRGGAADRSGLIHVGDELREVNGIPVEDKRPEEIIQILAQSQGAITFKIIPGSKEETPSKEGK

T10: PTPN13_1, Q12923
T10 sequence (Q12923 1088-1188, limits assumed, looked up): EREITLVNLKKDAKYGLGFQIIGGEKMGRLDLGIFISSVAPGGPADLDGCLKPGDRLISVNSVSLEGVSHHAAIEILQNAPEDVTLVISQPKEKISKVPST

T11: DFNB31_3, Q9P202
T11 sequence (Q9P202 811-907, limits assumed, looked up): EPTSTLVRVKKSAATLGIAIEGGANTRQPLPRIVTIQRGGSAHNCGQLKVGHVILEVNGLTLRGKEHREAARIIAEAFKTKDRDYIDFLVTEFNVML

B1: ADGRG1, Q9Y653 (peptide)
chain: SSGSTSSSRI
B2: SEMA4C, Q9C0C4 (peptide)
chain: PDSNPEESSV
B3: KCNT1, Q5JUK3 (peptide)
chain: NPETRDETQL
B4: CLDN9, O95484 (peptide)
chain: ASGLDKRDYV

Biological target: LAP2, Q96RT1
Test: holdup assay
Parameters: key: below the threshold = too weak to quantify, mostly under pKd 3.1 to 4
Conditions: plain residues with an end cap or a label only (N-terminal biotin on a linker: ado-ado)

Sequence of LAP2, Q96RT1 (Q96RT1 other isoform, or with tags, fused parts or gaps): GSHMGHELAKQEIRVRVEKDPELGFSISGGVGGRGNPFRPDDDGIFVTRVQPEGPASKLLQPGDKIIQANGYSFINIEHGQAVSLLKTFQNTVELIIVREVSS

Binder | pKd
B1 | below the threshold
B2 | 4.46
B3 | below the threshold
B4 | below the threshold

Biological target: MAST1, Q9Y2H9
Test: holdup assay
Parameters: key: below the threshold = too weak to quantify, mostly under pKd 3.1 to 4
Conditions: plain residues with an end cap or a label only (N-terminal biotin on a linker: ado-ado)

Sequence of MAST1, Q9Y2H9 (Q9Y2H9 962-1065): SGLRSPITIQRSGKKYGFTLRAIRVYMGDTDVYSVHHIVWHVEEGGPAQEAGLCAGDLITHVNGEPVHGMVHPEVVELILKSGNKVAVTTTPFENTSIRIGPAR

Binder | pKd
B1 | 4
B2 | 4.86
B3 | 4.97
B4 | below the threshold

Biological target: PICK1, Q9NRD5
Test: holdup assay
Parameters: key: below the threshold = too weak to quantify, mostly under pKd 3.1 to 4
Conditions: plain residues with an end cap or a label only (N-terminal biotin on a linker: ado-ado)

Sequence of PICK1, Q9NRD5 (Q9NRD5 17-115): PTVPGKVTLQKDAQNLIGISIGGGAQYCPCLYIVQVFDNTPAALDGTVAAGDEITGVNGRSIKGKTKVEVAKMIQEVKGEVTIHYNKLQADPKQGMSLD

Binder | pKd
B1 | below the threshold
B2 | below the threshold
B3 | below the threshold
B4 | below the threshold

Biological target: Inadl_5, Q8NI35
Test: holdup assay
Parameters: key: below the threshold = too weak to quantify, mostly under pKd 3.1 to 4
Conditions: plain residues with an end cap or a label only (N-terminal biotin on a linker: ado-ado)

Sequence of Inadl_5, Q8NI35 (Q8NI35 673-780): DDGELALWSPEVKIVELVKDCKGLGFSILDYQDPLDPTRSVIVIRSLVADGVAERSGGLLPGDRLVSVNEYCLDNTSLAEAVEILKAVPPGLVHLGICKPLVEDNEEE

Binder | pKd
B1 | below the threshold
B2 | below the threshold
B3 | below the threshold
B4 | below the threshold

Biological target: SCRIB_3, Q14160
Test: holdup assay
Parameters: key: below the threshold = too weak to quantify, mostly under pKd 3.1 to 4
Conditions: plain residues with an end cap or a label only (N-terminal biotin on a linker: ado-ado)

Sequence of SCRIB_3, Q14160 (Q14160 999-1103): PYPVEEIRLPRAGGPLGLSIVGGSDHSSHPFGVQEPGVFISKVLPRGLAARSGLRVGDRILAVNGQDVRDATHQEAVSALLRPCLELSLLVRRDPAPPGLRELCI

Binder | pKd
B1 | below the threshold
B2 | 4.45
B3 | 4.84
B4 | below the threshold

Biological target: T1, PDZD2_2, O15018
Test: holdup assay
Parameters: key: below the threshold = too weak to quantify, mostly under pKd 3.1 to 4
Conditions: plain residues with an end cap or a label only (N-terminal biotin on a linker: ado-ado)

Binder | pKd
B1 | 4.18
B2 | 5.35
B3 | 3.72
B4 | 5.04

Biological target: MAGI2_5, Q86UL8
Test: holdup assay
Parameters: key: below the threshold = too weak to quantify, mostly under pKd 3.1 to 4
Conditions: plain residues with an end cap or a label only (N-terminal biotin on a linker: ado-ado)

Sequence of MAGI2_5, Q86UL8 (Q86UL8 915-1017): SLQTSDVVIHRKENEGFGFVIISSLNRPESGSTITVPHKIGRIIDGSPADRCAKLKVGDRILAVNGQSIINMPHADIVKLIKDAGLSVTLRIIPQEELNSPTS

Binder | pKd
B1 | below the threshold
B2 | 3.89
B3 | 3.75
B4 | below the threshold

Biological target: T2, DLG3_2, Q92796
Test: holdup assay
Parameters: key: below the threshold = too weak to quantify, mostly under pKd 3.1 to 4
Conditions: plain residues with an end cap or a label only (N-terminal biotin on a linker: ado-ado)

Binder | pKd
B1 | 3.75
B2 | 3.73
B3 | below the threshold
B4 | below the threshold

Biological target: DLG4_3, P78352
Test: holdup assay
Parameters: key: below the threshold = too weak to quantify, mostly under pKd 3.1 to 4
Conditions: plain residues with an end cap or a label only (N-terminal biotin on a linker: ado-ado)

Sequence of DLG4_3, P78352 (P78352 306-403): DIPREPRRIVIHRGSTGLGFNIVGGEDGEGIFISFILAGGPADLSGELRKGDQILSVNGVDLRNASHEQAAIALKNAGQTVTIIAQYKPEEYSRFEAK

Binder | pKd
B1 | below the threshold
B2 | below the threshold
B3 | below the threshold
B4 | below the threshold

Biological target: MAGI2_2, Q86UL8
Test: holdup assay
Parameters: key: below the threshold = too weak to quantify, mostly under pKd 3.1 to 4
Conditions: plain residues with an end cap or a label only (N-terminal biotin on a linker: ado-ado)

Sequence of MAGI2_2, Q86UL8 (Q86UL8 410-522): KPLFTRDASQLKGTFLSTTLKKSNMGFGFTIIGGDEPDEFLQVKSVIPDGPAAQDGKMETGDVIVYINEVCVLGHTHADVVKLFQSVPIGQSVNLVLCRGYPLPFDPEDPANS

Binder | pKd
B1 | below the threshold
B2 | below the threshold
B3 | below the threshold
B4 | below the threshold

Biological target: Inadl_4, Q8NI35
Test: holdup assay
Parameters: key: below the threshold = too weak to quantify, mostly under pKd 3.1 to 4
Conditions: plain residues with an end cap or a label only (N-terminal biotin on a linker: ado-ado)

Sequence of Inadl_4, Q8NI35 (Q8NI35 547-651): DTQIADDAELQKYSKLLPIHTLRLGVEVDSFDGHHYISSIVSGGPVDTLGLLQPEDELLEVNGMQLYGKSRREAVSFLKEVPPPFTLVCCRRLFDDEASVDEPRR

Binder | pKd
B1 | below the threshold
B2 | 3.48
B3 | below the threshold
B4 | below the threshold

Biological target: T3, TX1BP3, O14907
Test: holdup assay
Parameters: key: below the threshold = too weak to quantify, mostly under pKd 3.1 to 4
Conditions: plain residues with an end cap or a label only (N-terminal biotin on a linker: ado-ado)

Binder | pKd
B1 | below the threshold
B2 | 4.25
B3 | 3.62
B4 | 3.92

Biological target: T4, LIN7C, Q9NUP9
Test: holdup assay
Parameters: key: below the threshold = too weak to quantify, mostly under pKd 3.1 to 4
Conditions: plain residues with an end cap or a label only (N-terminal biotin on a linker: ado-ado)

Binder | pKd
B1 | below the threshold
B2 | 3.56
B3 | 3.68
B4 | 4

Biological target: T5, RADIL, Q96JH8
Test: holdup assay
Parameters: key: below the threshold = too weak to quantify, mostly under pKd 3.1 to 4
Conditions: plain residues with an end cap or a label only (N-terminal biotin on a linker: ado-ado)

Binder | pKd
B1 | below the threshold
B2 | below the threshold
B3 | below the threshold
B4 | 4.08

Biological target: T6, HTRA4, P83105
Test: holdup assay
Parameters: key: below the threshold = too weak to quantify, mostly under pKd 3.1 to 4
Conditions: plain residues with an end cap or a label only (N-terminal biotin on a linker: ado-ado)

Binder | pKd
B1 | below the threshold
B2 | below the threshold
B3 | below the threshold
B4 | below the threshold

Biological target: T7, DLG3_3, Q92796
Test: holdup assay
Parameters: key: below the threshold = too weak to quantify, mostly under pKd 3.1 to 4
Conditions: plain residues with an end cap or a label only (N-terminal biotin on a linker: ado-ado)

Binder | pKd
B1 | 3.64
B2 | 3.62
B3 | below the threshold
B4 | below the threshold

Biological target: Inadl_6, Q8NI35
Test: holdup assay
Parameters: key: below the threshold = too weak to quantify, mostly under pKd 3.1 to 4
Conditions: plain residues with an end cap or a label only (N-terminal biotin on a linker: ado-ado)

Sequence of Inadl_6, Q8NI35 (Q8NI35 1058-1167): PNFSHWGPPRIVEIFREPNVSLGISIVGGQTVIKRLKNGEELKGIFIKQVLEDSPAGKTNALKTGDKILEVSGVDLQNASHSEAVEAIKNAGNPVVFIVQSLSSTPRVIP

Binder | pKd
B1 | below the threshold
B2 | below the threshold
B3 | 3.76
B4 | below the threshold

Biological target: HTRA2, O43464
Test: holdup assay
Parameters: key: below the threshold = too weak to quantify, mostly under pKd 3.1 to 4
Conditions: plain residues with an end cap or a label only (N-terminal biotin on a linker: ado-ado)

Sequence of HTRA2, O43464 (O43464 355-458): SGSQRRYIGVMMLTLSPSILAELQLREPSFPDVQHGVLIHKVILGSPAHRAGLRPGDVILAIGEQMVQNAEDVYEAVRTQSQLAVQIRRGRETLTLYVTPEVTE

Binder | pKd
B1 | below the threshold
B2 | below the threshold
B3 | below the threshold
B4 | below the threshold

Biological target: NOS1, P29475
Test: holdup assay
Parameters: key: below the threshold = too weak to quantify, mostly under pKd 3.1 to 4
Conditions: plain residues with an end cap or a label only (N-terminal biotin on a linker: ado-ado)

Sequence of NOS1, P29475 (P29475 9-101): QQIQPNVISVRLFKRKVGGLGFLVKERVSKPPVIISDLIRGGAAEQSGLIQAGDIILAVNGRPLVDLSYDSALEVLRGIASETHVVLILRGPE

Binder | pKd
B1 | below the threshold
B2 | 3.71
B3 | 3.52
B4 | 4.22

Biological target: T8, DFNB31_2, Q9P202
Test: holdup assay
Parameters: key: below the threshold = too weak to quantify, mostly under pKd 3.1 to 4
Conditions: plain residues with an end cap or a label only (N-terminal biotin on a linker: ado-ado)

Binder | pKd
B1 | below the threshold
B2 | below the threshold
B3 | below the threshold
B4 | below the threshold

Biological target: T9, MPP7, Q5T2T1
Test: holdup assay
Parameters: key: below the threshold = too weak to quantify, mostly under pKd 3.1 to 4
Conditions: plain residues with an end cap or a label only (N-terminal biotin on a linker: ado-ado)

Binder | pKd
B1 | below the threshold
B2 | below the threshold
B3 | below the threshold
B4 | below the threshold

Biological target: FRMPD2_3, Q68DX3
Test: holdup assay
Parameters: key: below the threshold = too weak to quantify, mostly under pKd 3.1 to 4
Conditions: plain residues with an end cap or a label only (N-terminal biotin on a linker: ado-ado)

Sequence of FRMPD2_3, Q68DX3 (Q68DX3 1073-1166): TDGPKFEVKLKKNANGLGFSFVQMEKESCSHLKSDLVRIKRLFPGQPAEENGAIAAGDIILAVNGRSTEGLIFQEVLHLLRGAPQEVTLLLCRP

Binder | pKd
B1 | below the threshold
B2 | 3.54
B3 | below the threshold
B4 | below the threshold

Biological target: GRIP2_4, Q9C0E4
Test: holdup assay
Parameters: key: below the threshold = too weak to quantify, mostly under pKd 3.1 to 4
Conditions: plain residues with an end cap or a label only (N-terminal biotin on a linker: ado-ado)

Sequence of GRIP2_4, Q9C0E4 (Q9C0E4 446-548): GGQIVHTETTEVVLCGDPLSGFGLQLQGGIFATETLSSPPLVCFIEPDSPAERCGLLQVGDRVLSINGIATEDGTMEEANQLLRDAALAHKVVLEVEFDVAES

Binder | pKd
B1 | below the threshold
B2 | below the threshold
B3 | below the threshold
B4 | below the threshold

Biological target: T10, PTPN13_1, Q12923
Test: holdup assay
Parameters: key: below the threshold = too weak to quantify, mostly under pKd 3.1 to 4
Conditions: plain residues with an end cap or a label only (N-terminal biotin on a linker: ado-ado)

Binder | pKd
B1 | below the threshold
B2 | below the threshold
B3 | 3.54
B4 | below the threshold

Biological target: Inadl_1, Q8NI35
Test: holdup assay
Parameters: key: below the threshold = too weak to quantify, mostly under pKd 3.1 to 4
Conditions: plain residues with an end cap or a label only (N-terminal biotin on a linker: ado-ado)

Sequence of Inadl_1, Q8NI35 (Q8NI35 113-229): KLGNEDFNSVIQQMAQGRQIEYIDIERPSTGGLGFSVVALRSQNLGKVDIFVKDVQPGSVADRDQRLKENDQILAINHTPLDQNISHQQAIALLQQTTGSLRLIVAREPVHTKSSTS

Binder | pKd
B1 | below the threshold
B2 | below the threshold
B3 | below the threshold
B4 | below the threshold

Biological target: T11, DFNB31_3, Q9P202
Test: holdup assay
Parameters: key: below the threshold = too weak to quantify, mostly under pKd 3.1 to 4
Conditions: plain residues with an end cap or a label only (N-terminal biotin on a linker: ado-ado)

Binder | pKd
B1 | 3.96
B2 | below the threshold
B3 | 4.01
B4 | below the threshold

Biological target: IL16_3, Q14005
Test: holdup assay
Parameters: key: below the threshold = too weak to quantify, mostly under pKd 3.1 to 4
Conditions: plain residues with an end cap or a label only (N-terminal biotin on a linker: ado-ado)

Sequence of IL16_3, Q14005 (Q14005 1107-1207): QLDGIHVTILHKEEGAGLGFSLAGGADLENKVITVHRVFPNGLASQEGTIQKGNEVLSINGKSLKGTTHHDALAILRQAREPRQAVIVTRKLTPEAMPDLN

Binder | pKd
B1 | below the threshold
B2 | below the threshold
B3 | below the threshold
B4 | below the threshold
